Results on one protein are retold here after FireProtDB (doi:10.1016/j.jmb.2004.06.079).

For this data set the following is noted: Chloroflexus aurantiacus (strain ATCC 29366 / DSM 635 / J-10-fl), Thermal, CD, whole UniProt chain shown.

B1: Malate dehydrogenase wild type, P80040 (protein)
chain: MRKKISIIGAGFVGSTTAHWLAAKELGDIVLLDFVEGVPQGKALDLYEASPIEGFDVRVTGTNNYADTANSDVIVVTSGAPRKPGMSREDLIKVNADITRACISQAAPLSPNAVIIMVNNPLDAMTYLAAEVSGFPKERVIGQAGVLDAARYRTFIAMEAGVSVEDVQAMLMGGHGDEMVPLPRFSTISGIPVSEFIAPDRLAQIVERTRKGGGEIVNLLKTGSAYYAPAAATAQMVEAVLKDKKRVMPVAAYLTGQYGLNDIYFGVPVILGAGGVEKILELPLNEEEMALLNASAKAVRATLDTLKSL
As for B1, the Tm – broadly, the temperature at which the thermal transition is half complete – was determined as 80.4 °C (pH 4.4, sodium acetate 10 mM); 79.4 °C (pH 6, potassium phosphate 10 mM); 67.8 °C (pH 7.5, potassium phosphate 10 mM).
